From patent US20200207841A1 (MIT, published 2020)
Residue numbers refer to the chain shown, from its start. Names and notes keep the numbering of the source.

B1: VH_G27A (antibody, V domains shown)
VH: VKLLEQSGAELVKPGASVRLSCTASAFNIKDTYMSWVKQRPEQGLEWIGRIDPENGDTKYDPKFQGKATITADTSSNTAYLHLSSLTSGDTAVYYCSRGWEGFAYWGQGTLVTVSA
VL: ELVMTQTPASLAVSLGQRATISCRASENVDKYGNSFMHWYQQKAGQPPKLLIYRASELQWGIPARFSGSGSRTDFTLTINPVEADDVATYFCQRSNEVPWTFGGGTKLEIKR
B2: VH_A25_del (antibody, V domains shown)
VH: VKLLEQSGAELVKPGASVRLSCTSGFNIKDTYMSWVKQRPEQGLEWIGRIDPENGDTKYDPKFQGKATITADTSSNTAYLHLSSLTSGDTAVYYCSRGWEGFAYWGQGTLVTVSA
VL: ELVMTQTPASLAVSLGQRATISCRASENVDKYGNSFMHWYQQKAGQPPKLLIYRASELQWGIPARFSGSGSRTDFTLTINPVEADDVATYFCQRSNEVPWTFGGGTKLEIK
notes: also called 4E5-del-25; copies: 2 + 2
B3: VH_G27P (antibody, V domains shown)
VH: B1 VH with A26P
VL: B2 VL
notes: also called 4E5-G27P; copies: 2 + 2
B4: VH_Y106R (antibody, V domains shown)
VH: B1 VH with A26G, Y105R
VL: B2 VL
notes: copies: 2 + 2
B5: VH_S26_del (antibody, V domains shown)
VH: B2 VH with S24A
VL: B1 VL
B6: VH_G27_del (antibody, V domains shown)
VH: B2 VH with S24A, G25S
VL: B1 VL
B7: 4E11 VH-A55E (antibody, V domains shown)
VH: B1 VH with A26G
VL: B1 VL with K31R, E57N, Q59E, W60S
B8: 4E5A (antibody, V domains shown)
VH: B1 VH with A26G
VL: B1 VL
notes: also called 4E11-5A; E45A
B9: 4E11 VL-E59Q (antibody, V domains shown)
VH: B1 VH with A26G, E54A
VL: B1 VL with K31R, E57N, W60S
B10: 4E11 VL-N57E (antibody, V domains shown)
VH: B1 VH with A26G, E54A
VL: B1 VL with K31R, Q59E, W60S
B11: 4E5A single chain Fv on yeast (scFv, V domains shown)
VH: B1 VH with A26G
VL: B1 VL
notes: also called 4E5A scFv
B12: VH_G27A single chain Fv on yeast (scFv, V domains shown)
VH: B1 VH
VL: B1 VL
B13: VH_G27P single chain Fv on yeast (scFv, V domains shown)
VH: B1 VH with A26P
VL: B1 VL

target: T1, EDIII-DV3 (Dengue virus serotype 3 (DV3), UniProt Q6YMS3 579-671); assay: competition ELISA; affinity relative to 4E5A
T1 construct: also called EDIII of DV3; EDIII-DVIII

Row | Binder | REL AFFINITY
1 | B1 | 1.17
2 | B2 | 1.22
3 | B3 | 0.73
4 | B4 | 0.72
5 | B5 | 4.42
6 | B6 | 2.67

target: T2, EDIII-DV1 (Dengue virus serotype 1 (DV1), UniProt P17763 581-673); assay: competition ELISA; affinity relative to 4E5A
T2 construct: also called EDIII of DV1; EDIII-DVI

Row | Binder | REL AFFINITY
7 | B1 | > 1.23
8 | B2 | 0.29
9 | B3 | 0.08
10 | B4 | > 1.23
11 | B5 | > 1.23
12 | B6 | > 1.23

target: T3, EDIII-DV4 (Dengue virus serotype 4 (DV4), UniProt P09866 580-672); assay: competition ELISA; affinity relative to 4E5A
T3 construct: also called EDIII of DV4; DV4 EDIII

Row | Binder | REL AFFINITY
13 | B1 | 2.92
14 | B2 | 0.54
15 | B3 | 0.06
16 | B4 | 0.46
17 | B6 | 4.78

target: T3, EDIII-DV4; assay: competition ELISA

Row | Binder | fold affinity enhancement relative to 4E11 WT
18 | B7 | 9.2 fold

target: T1, EDIII-DV3; assay: not given

Row | Binder | Kd | koff | kon
19 | B8 | 2.72 nM | – | –
20 | B1 | 3.24 nM | 7.54 s⁻¹ | –
21 | B2 | 5.4 nM | 0.0269 s⁻¹ | 4.98e+06 M⁻¹ s⁻¹
22 | B3 | 4.52 nM | 0.0133 s⁻¹ | 2.95e+06 M⁻¹ s⁻¹
23 | B5 | 2.6 nM | – | –
24 | B6 | 2.39 nM | 0.0483 s⁻¹ | 2.02e+07 M⁻¹ s⁻¹

target: T3, EDIII-DV4; assay: not given

Row | Binder | Kd | koff | kon
25 | B1 | 22.1 nM | 0.0406 s⁻¹ | 1.83e+06 M⁻¹ s⁻¹
26 | B2 | 25.9 nM | 0.13 s⁻¹ | 4.99e+06 M⁻¹ s⁻¹
27 | B6 | 8.04 nM | 0.0188 s⁻¹ | 2.34e+06 M⁻¹ s⁻¹

target: T2, EDIII-DV1; assay: not given

Row | Binder | Kd | koff | kon
28 | B8 | 0.217 nM | – | –
29 | B1 | 0.0805 nM | 8.38e-05 s⁻¹ | 1.04e+06 M⁻¹ s⁻¹
30 | B2 | 1.43 nM | 0.00133 s⁻¹ | 933000 M⁻¹ s⁻¹
31 | B3 | 2.76 nM | 0.00841 s⁻¹ | 3.05e+06 M⁻¹ s⁻¹
32 | B5 | 0.118 nM | – | –
33 | B6 | 0.31 nM | 0.000471 s⁻¹ | 1.52e+06 M⁻¹ s⁻¹

target: T4, EDIII-DV2 (Dengue virus serotype 2 (DV2), UniProt P14337 581-673); assay: not given
T4 construct: also called EDIII of DV2; EDIII-DVII

Row | Binder | Kd | kon | koff
34 | B8 | 0.129 nM | – | –
35 | B1 | 0.202 nM | 2.08e+06 M⁻¹ s⁻¹ | –
36 | B2 | – | 2.74e+06 M⁻¹ s⁻¹ | 0.000182 s⁻¹
37 | B3 | 0.265 nM | 1.99e+06 M⁻¹ s⁻¹ | 0.000527 s⁻¹
38 | B5 | 0.104 nM | – | –
39 | B6 | 0.269 nM | 2.09e+06 M⁻¹ s⁻¹ | 0.000563 s⁻¹

target: T1, EDIII-DV3; assay: not given; remark: another data set of the same source

Row | Binder | Kd
40 | B8 | 24.2 nM
41 | B1 | 20.6 nM
42 | B2 | 19.8 nM
43 | B3 | 33.1 nM
44 | B4 | 33.4 nM
45 | B5 | 5.47 nM
46 | B6 | 9.05 nM

target: T2, EDIII-DV1; assay: not given; remark: another data set of the same source

Row | Binder | Kd
47 | B8 | 0.368 nM
48 | B1 | < 0.3 nM
49 | B2 | 1.27 nM
50 | B3 | 4.58 nM
51 | B4 | < 0.3 nM
52 | B5 | < 0.3 nM
53 | B6 | < 0.3 nM

target: T4, EDIII-DV2; assay: not given; remark: another data set of the same source

Row | Binder | Kd
54 | B8 | < 0.3 nM
55 | B1 | < 0.3 nM
56 | B2 | < 0.3 nM
57 | B5 | < 0.3 nM
58 | B6 | < 0.3 nM

target: T3, EDIII-DV4; assay: not given; remark: another data set of the same source

Row | Binder | Kd
59 | B1 | 43.2 nM
60 | B2 | 236 nM
61 | B3 | 1970 nM
62 | B4 | 272 nM
63 | B6 | 26.4 nM

target: T3, EDIII-DV4; assay: calculated from KD, ΔG = RTln(KD) at 25° C.

Row | Binder | ΔG
64 | B7 | -7.29 kcal/mol
65 | B9 | -6.76 kcal/mol
66 | B10 | -6.92 kcal/mol

target: T3, EDIII-DV4; assay: not given; remark: another data set of the same source

Row | Binder | Kd
67 | B7 | 4.44 µM
68 | B9 | 11 µM
69 | B10 | 8.41 µM

target: DV1 (Dengue virus serotype 1, virus used in FRNT) (Dengue virus serotype 1 (DV1)); assay: cell-based or functional assay

Row | Binder | FRNT50 (focus reduction neutralization test)
70 | B8 | 0.19 µg/mL

target: DV2 (Dengue virus serotype 2, virus used in FRNT) (Dengue virus serotype 2 (DV2)); assay: cell-based or functional assay

Row | Binder | FRNT50 (focus reduction neutralization test)
71 | B8 | 0.028 µg/mL

target: DV3 (Dengue virus serotype 3, virus used in FRNT) (Dengue virus serotype 3 (DV3)); assay: cell-based or functional assay

Row | Binder | FRNT50 (focus reduction neutralization test)
72 | B8 | 0.77 µg/mL

target: DV4 (Dengue virus serotype 4, virus used in FRNT) (Dengue virus serotype 4 (DV4)); assay: cell-based or functional assay

Row | Binder | FRNT50 (focus reduction neutralization test)
73 | B8 | 4 µg/mL

target: T3, EDIII-DV4; assay: calculated from KD, relative to 4E11 WT

Row | Binder | ΔΔG (ΔGmutant - ΔGWT)
74 | B7 | -1.31 kcal/mol
75 | B9 | -0.77 kcal/mol
76 | B10 | -0.93 kcal/mol

target: T3, EDIII-DV4; assay: scFv displayed on yeast (YSD), soluble tagged EDIII-DV4 titrated, read by FACS

Row | Binder | Kd
77 | B11 | 650 nM
78 | B12 | 185 nM
79 | B13 | 53300 nM
